Test results reported in paper PMC9169791 (Proceedings of the National Academy of Sciences of the …, 2022).

Target: T1, GST-DDRM1 (Arabidopsis thaliana, UniProt Q9ZW89 1-453)
T1 sequence (looked up): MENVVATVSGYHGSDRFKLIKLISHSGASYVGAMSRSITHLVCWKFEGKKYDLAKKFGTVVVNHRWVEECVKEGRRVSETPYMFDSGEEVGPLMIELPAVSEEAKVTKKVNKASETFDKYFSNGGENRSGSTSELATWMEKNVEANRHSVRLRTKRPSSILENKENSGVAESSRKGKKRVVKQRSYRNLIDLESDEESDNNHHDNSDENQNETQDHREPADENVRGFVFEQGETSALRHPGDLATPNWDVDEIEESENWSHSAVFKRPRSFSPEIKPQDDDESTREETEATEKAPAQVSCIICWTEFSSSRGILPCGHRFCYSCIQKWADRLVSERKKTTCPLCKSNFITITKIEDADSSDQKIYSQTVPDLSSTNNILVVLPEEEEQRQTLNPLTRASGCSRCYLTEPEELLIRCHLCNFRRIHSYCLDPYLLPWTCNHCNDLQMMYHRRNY
Experiment: pull-down

- binding result: binds
B1: MBP-SOG1 (natural protein, Arabidopsis thaliana, UniProt Q6NQK2 1-449, looked up)
chain: MAGRSWLIDSNRIATKIMSASASSDPRQVVWKSNPSRHCPKCQHVIDNSDVVDDWPGLPRGVKFDPSDPEIIWHLLAKSGLSGLSSHPFIDEFIPTVNQDDGICYTHPKNLPGVKSDGTVSHFFHKAIKAYSTGTRKRRKIHDDDFGDVRWHKTGRTKPVVLDGVQRGCKKIMVLYGGKAVKTNWVMHQYHLGIEEDEKEGDYVVSKIFYQQPQQLVVKRGDKAEQEVSEDIFAAVTPTADPVTPKLATPEPRNAVRICSDSHIASDYVTPSDYVSAHEVSLAETSEVMCMEDEVQSIQPNHERPSSGPELEHGLENGAKEMLDDKEEQEKDRDNENQGEEDPTWFDSGSQFILNSQQLVEALSLCDDLLGSQDREENTNSGSLKDKQPCIADYAHLGPEDFKRDLEECQKIVLDPSNIELDTPPEFRLSQLEFGSQDSFLAWGTGKTD
